Laboratory results reported in patent publication US20240301052A1 (LANOVA MEDICINES DEVELOPMENT, published 2024).

T1: rat SLC34A2 (rat, UniProt Q9JJ09 1-695)
T1 construct: whole, on cells
T1 sequence (looked up): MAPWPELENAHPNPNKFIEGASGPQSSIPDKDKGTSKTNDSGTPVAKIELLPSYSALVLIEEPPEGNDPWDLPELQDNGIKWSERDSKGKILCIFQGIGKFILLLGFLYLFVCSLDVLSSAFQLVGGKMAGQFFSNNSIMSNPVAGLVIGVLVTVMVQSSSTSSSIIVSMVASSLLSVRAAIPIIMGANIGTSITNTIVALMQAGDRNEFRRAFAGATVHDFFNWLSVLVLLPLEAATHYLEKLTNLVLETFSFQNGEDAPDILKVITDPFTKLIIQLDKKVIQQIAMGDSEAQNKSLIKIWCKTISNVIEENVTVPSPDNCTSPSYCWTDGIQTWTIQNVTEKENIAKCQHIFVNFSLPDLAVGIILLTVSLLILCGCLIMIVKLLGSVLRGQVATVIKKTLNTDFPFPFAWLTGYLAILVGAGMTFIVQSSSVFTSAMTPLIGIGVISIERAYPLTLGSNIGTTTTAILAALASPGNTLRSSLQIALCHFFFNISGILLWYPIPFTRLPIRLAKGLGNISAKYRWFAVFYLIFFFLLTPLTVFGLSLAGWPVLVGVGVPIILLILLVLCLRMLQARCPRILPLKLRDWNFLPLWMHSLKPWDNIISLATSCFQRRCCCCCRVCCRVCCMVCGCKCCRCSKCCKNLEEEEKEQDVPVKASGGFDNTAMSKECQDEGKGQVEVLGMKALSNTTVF

T2: Cynomolgus SLC34A2 (Cynomolgus, UniProt A0A2K5UHY1 1-690)
T2 construct: whole, on cells; also called Cyno SLC34A2
T2 sequence: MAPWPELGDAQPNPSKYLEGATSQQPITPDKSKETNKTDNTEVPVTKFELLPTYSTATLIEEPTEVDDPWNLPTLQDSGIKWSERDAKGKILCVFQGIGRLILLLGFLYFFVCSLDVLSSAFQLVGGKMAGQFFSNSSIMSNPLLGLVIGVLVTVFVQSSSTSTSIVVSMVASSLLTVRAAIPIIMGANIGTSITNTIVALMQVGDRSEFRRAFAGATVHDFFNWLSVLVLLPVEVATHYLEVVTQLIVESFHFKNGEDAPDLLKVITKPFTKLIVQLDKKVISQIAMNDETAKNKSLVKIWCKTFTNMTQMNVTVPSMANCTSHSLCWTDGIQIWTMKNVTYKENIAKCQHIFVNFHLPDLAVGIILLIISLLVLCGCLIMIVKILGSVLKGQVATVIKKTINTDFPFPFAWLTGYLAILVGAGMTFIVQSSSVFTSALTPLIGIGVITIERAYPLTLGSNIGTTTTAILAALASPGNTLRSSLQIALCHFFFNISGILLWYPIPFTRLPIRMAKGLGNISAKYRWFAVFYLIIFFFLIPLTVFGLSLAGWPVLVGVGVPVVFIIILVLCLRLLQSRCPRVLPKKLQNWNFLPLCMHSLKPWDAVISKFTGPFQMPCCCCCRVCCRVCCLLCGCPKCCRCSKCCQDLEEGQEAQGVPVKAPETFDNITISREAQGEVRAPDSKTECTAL

T3: human SLC34A2 (human, UniProt O95436 1-690)
T3 construct: whole, on cells; also called human solute carrier 34 A2; NaPi2b
T3 sequence (looked up): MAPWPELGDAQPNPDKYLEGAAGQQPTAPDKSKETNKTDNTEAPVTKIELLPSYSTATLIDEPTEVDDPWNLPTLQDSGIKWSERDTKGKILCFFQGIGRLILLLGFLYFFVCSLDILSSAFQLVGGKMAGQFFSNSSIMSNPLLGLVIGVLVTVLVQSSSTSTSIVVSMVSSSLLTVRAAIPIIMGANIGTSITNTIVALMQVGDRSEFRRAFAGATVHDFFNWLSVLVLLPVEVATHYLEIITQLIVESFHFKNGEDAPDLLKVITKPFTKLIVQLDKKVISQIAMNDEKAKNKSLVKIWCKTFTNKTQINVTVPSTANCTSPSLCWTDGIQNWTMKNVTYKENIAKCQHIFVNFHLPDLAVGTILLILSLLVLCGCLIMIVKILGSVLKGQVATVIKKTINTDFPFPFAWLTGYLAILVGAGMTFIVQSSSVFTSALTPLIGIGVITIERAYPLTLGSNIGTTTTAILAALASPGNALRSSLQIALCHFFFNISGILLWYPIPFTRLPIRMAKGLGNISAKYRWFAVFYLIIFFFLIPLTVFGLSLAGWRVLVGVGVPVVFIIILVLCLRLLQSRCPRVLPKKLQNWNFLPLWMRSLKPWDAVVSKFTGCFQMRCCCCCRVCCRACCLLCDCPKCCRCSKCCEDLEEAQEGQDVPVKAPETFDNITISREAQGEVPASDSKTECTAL


What was measured:
[1] = molecular target: Cynomolgus SLC34A2 (Cynomolgus); test: FACS, cells expressing Cynomolgus SLC34A2
[2] = molecular target: T1, rat SLC34A2; test: FACS, HEK293/Rat SLC34A2 cells
[3] = molecular target: T2, Cynomolgus SLC34A2; test: FACS, cells expressing Cynomolgus SLC34A2
[4] = molecular target: T3, human SLC34A2; test: FACS, HEK293/human SLC34A2 cells
[5] = molecular target: T3, human SLC34A2; test: FACS, OVCAR3 cells
[6] = molecular target: T3, human SLC34A2; test: cell-based or functional assay
[7] = molecular target: T3, human SLC34A2; test: FACS, HEK293/human SLC34A2 cells; remark: listed apart in the source
Experimental: The PTM-derisked VH chains were first tested for their impact on target binding. Cell based binding of PTM Abs on human SLC34A2 expressing cells were assessed using flow cytometry. Briefly, the HEK293/H_SLC34A2 cells were incubated with PTM Abs (from 200 nM, 4 folds dilution, 8 points). After incubation at 4° C. for 60 minutes, the cells were washed with FACS buffer twice, then stained with fluorescent conjugated secondary antibody at 4° C. for 30 minutes. After that the cells were washed twice and analyzed by flow cytometry.

[8] = molecular target: T3, human SLC34A2; test: FACS, OVCAR3 cells; remark: listed apart in the source
[9] = molecular target: T3, human SLC34A2; test: FACS, OVCAR3 cells; remark: listed apart in the source

Row | Binder | EC50 [2] [nM] | EC50 [3] [nM] | EC50 [4] [nM] | EC50 [5] [nM] | Top (MFI) [5] [MFI] | ADCC reporter EC50 [6] [nM] | ADCC reporter Top (MFI) [6] [MFI] | EC50 [7] [nM] | Top (MFI) [7] [MFI] | other results
1 | XMT-1536 (antibody, INN chains, looked up, V domains shown, rilsodotin auristatin payload) VH: QVQLVQSGAEVVKPGASVKMSCKASGYTFTGYNIHWVKQAPGQGLEWIGAIYPGNGDTSYKQKFRGRATLTADTSTSTVYMELSSLRSEDSAVYYCARGETARATFAYWGQGTLVTVSS VL: DIQMTQSPSSLSASVGDRVTITCSASQDIGNFLNWYQQKPGKTVKVLIYYTSSLYSGVPSRFSGSGSGTDYTLTISSLQPEDFATYYCQQYSKLPLTFGQGTKLELK |  |  |  |  |  |  |  |  |  | EC50 [1]: 29.3 nM; Top (MFI) [1]: 2050 MFI
2 | 62G10E4G8.p3.z15 hIgG1 (antibody, V domains shown, humanized hIgG1) VH: QVQLVQSGAEVVKPGASVKMSCKASGYTFPSYITHWVKQAPGQGLEWIGAIYPGNADTSYIQKFKGRATLTADKSTSTAYMELSSLRSEDTAVYYCARGTYGTSAWFTYWGQGTLVTVSS VL: EIVLTQSPATLSVSPGERATLSCRARQNIGNNLYWYQQKPGQSPRLLIKYASQSISGIPSRFSGSGSGTDFTLTISSLQSEDFAVYFCQQSFSWPLTFGQGTKLEIK | 4.04 | 1.63 | 2.86 |  |  |  |  |  |  | 
3 | xi63A11D5B4 hIgG1 (antibody, V domains shown, chimeric, hIgG1) VH: QVQLQQPGAELVKPGASVKMSCRTSGYTFITYNMHWVKQTPGQGREWIGAIYPGNGDTSYNQKFKGKATLTADKSSSTAYMQLNSLTSEDSAVYYCSISTIITTGAVDYWGQGTSVTVAS VL: DIVMTQSHKFMSTSVGDRVSITCKASQDVGTAVAWYQQKAGQSPKLLIYWTSTRHTGVPDRFTGSGSGTDFTLIIRSLQSEDLADYFCQQYSRIPLTFGSGTKLEIK |  |  |  | 9.2 | 78600 | 4.6 | 216000 | 2.13 | 30400 | EC50 [8]: 10.5 nM; Top (MFI) [8]: 32100 MFI
4 | 63A11D5B4.p1.z9 hIgG1 (antibody, V domains shown, humanized hIgG1) VH: QVQLVQSGAEVVKPGASVKMSCKTSGYTFITYNMHWVRQAPGQGLEWIGAIYPGSGDTSYNQKFKGRVTLTADKSTSTAYMELSSLRSEDTAVYYCSISTIITTGAVDYWGQGTLVTVSS VL: DIQMTQSPSSLSASVGDRVTITCKASQDVGTAVAWYQQKPGKVPKLLIYWTSTRHTGVPSRFSGSGSGTDFTLTISSLQPEDVATYYCQQYSRIPLTFGGGTKVEIK | 3.04 | 4.45 | 5.87 |  |  |  |  |  |  | EC50 [8]: 9.12 nM; Top (MFI) [8]: 26500 MFI
5 | xi91C9F1 hIgG1 (antibody, V domains shown, chimeric, hIgG1) VH: EVQLQQSGPELVKPGTSVKISCKTSGFFFTEYIIHWVKQSHGRSLEWIGGIIPNNGVTNYKQNFRGKAALTADKSSNTAYMELRSLTSEDSAVYYCARWRNGYYSAMDSWGQGTSVTVSS VL: DIVVTQSHKFMSTSLGDRVSITCTASQDVGTAVAWYQQKPGHSPKLLIYWASTRHTGVPERFTGSGSGTDFTLTITNVQSEDLADYFCQQYRTSPLTFGVGTKLELK |  |  |  | 1.6 | 63300 | 2.8 | 215000 | 1.57 | 28600 | EC50 [9]: 1.77 nM; Top (MFI) [9]: 32100 MFI
6 | 91C9F1.p1.z7 hIgG1 (antibody, V domains shown, humanized hIgG1) VH: QVQLVQSGAEVKKPGSSVKVSCKTSGFFFTEYIIHWVRQAPGQGLEWIGGIIPNNDVTNYKQNFRGRVTLTADKSTSTAYMELSSLRSEDTAVYYCARWRNAYYSAMDSWGQGTTVTVSS VL: DIQVTQSPSSLSTSVGDRVTITCTASQDVGTAVAWYQQKPGKSPKLLIYWASTRHTGVPERFTGSGSGTDFTLTISSVQPEDVATYFCQQYRTSPLTFGVGTKVEIK | 2.62 | 45.7 | 2.72 |  |  |  |  |  |  | EC50 [9]: 1.67 nM; Top (MFI) [9]: 37400 MFI
7 | 30H9B8F9.p1.z5 hIgG1 (antibody, V domains shown, humanized hIgG1) VH: QVQLVQSGAEVKKPGASVKVSCKTSGYTFTTNNMHWVRQAPGQGLEWIGAIYPGSGATAYNQKFKGRVTMTADTSTSTVYMELSSLRSEDTAVYYCARGMYGHGAMDYWGQGTLVTVSS VL: DIQLTQSPSFLSASVGDRVTITCKASQDVGTAVAWYQQKPGKAPKLLIYWATTRHSGVPSRFSGSGSGTEFTLTISSLQPEDFATYYCQQYSSNPLTFGQGTKLEIK | 1.81 | 0.97 | 2.4 |  |  |  |  |  |  | 
8 | xi30H9B8F9 hIgG1 (antibody, V domains shown, chimeric, hIgG1) VH: QVQLQQPGAELVKPGASVKMSCKTSGYTFTTNNMHWVKQTPGQGLEWIGAIYPGNGATAYNQKFKGKATLTADKSSSTAYMQLSSLTSEASAVYYCARGMYGHGAMDYWGQGTSVIVSS VL: DIVMTQSHKFMSRSVGDRVRITCKASQDVGTAVAWYQQKPGQSPKLLIYWATTRHSGVPDRFTGSGSGTDFIFTISNVQSEDLADYFCQQYSSNPLTFGAGTKLELK |  |  |  | 1.1 | 69100 | 3.1 | 487000 | 1.14 | 32200 | 
9 | xi62G10E4G8 hIgG1 (antibody, V domains shown, chimeric, hIgG1) VH: QVQLQQSGAEVVKPGASVKMSCKASGYTFPSYITHWVKQTPGQGLEWIGAIYPGNGDTSYIQKFKGKATLTADKSSSTAYMQLSSLTSEDSAVYYCARGTYGTSAWFTYWGQGTLVTVSA VL: DIVLTQSPATLSVTPGDSVSLSCRARQNIGNNLYWYQQKSHESPRLLIKYASQSISGIPSRFSGSGSGTDFTLTINSVETEDFGVYFCQQSFSWPLTFGAGTKLELK |  |  |  | 5.8 | 71100 | 4.8 | 542000 | 1.95 | 30300 | 
